Drawing on patent publication US10184115B2, “Mutated cellobiose dehydrogenase with increased substrate specificity” (DIRECTSENS GMBH, priority 2012, dated 2019), this text covers Km, kcat and kcat/Km for four proteins.

Substrate in data set [1]: OC[C@H]1O[C@H](O[C@H]2[C@H](O)[C@@H](O)C(O)O[C@@H]2CO)[C@H](O)[C@@H](O)[C@@H]1O
The experiment in a line: purified protein, by the assay type. The following applies: other: apparent, wt, DCIP assay, pH 5.5, 30° C.

Substrate in data set [2]: OC[C@H]1OC(O)[C@H](O)[C@@H](O)[C@@H]1O
Kind of data set: purified protein, by the assay type. The note with it: other: apparent, wt, DCIP assay, pH 5.5, 30° C.

Substrate in data set [3]: OC[C@H]1OC(O)[C@H](O)[C@@H](O)[C@@H]1O
The experiment in a line: Steady-state kinetics, DCIP assay: M. thermophilum CDH W316L. It counts as biochemical, Myriococcum thermophilum. The following applies: other: apparent, pH 4.5, 30° C., ~ values only estimated by non linear regression.

Substrate in data set [4]: OC[C@H]1OC(O)[C@H](O)[C@@H](O)[C@@H]1O
Kind of data set: Steady-state kinetics, DCIP assay: M. thermophilum CDH W316R. The following applies: other: apparent, pH 4.5, 30° C., ~ values only estimated by non linear regression. It is filed as biochemical, Myriococcum thermophilum.

Substrate in data set [5]: OC[C@H]1OC(O)[C@H](O)[C@@H](O)[C@@H]1O
The experiment in a line: Steady-state kinetics, DCIP assay: M. thermophilum CDH R622N. It counts as biochemical, Myriococcum thermophilum. The note with it: other: apparent, pH 4.5, 30° C., ~ values only estimated by non linear regression.

B1: Corynascus thermophilus cellobiose dehydrogenase (CDH), recombinant wild type, SEQ ID NO: 7 (Thermothelomyces fergusii) (protein)
chain: QMTEGTYTHEATGITFKTWTPSDGSTFTFGLALPGDALTNDATEYIGLLRCQITDPSSPGYCGISHGQSGQMTQALLLVAWASEDVVYTSFRYATGYTLPELYTGDAKLTQIASSVSGDSFEVLFRCENCFSWDQNGATGSVSTSNGALVLGYAASKSGLTGATCPDTAEFGFHNNGFGQWGAVLEGATSDSYEEWAQLATITPPTTCDGNGPGDKVCVPAPEDTYDYIVVGAGAGGITVADKLSEAGHKVLLIEKGPPSTGLWNGTMKPEWLEGTDLTRFDVPGLCNQIWVDSAGIACTDTDQMAGCVLGGGTAVNAGLWWKPHPADWDDNFPHGWKSSDLADATERVFSRIPGTWHPSQDGKLYRQEGFEVISQGLANAGWREVDANQEPSEKNRTYSHSVFMFSGGERGGPLATYLASAAQRSNFNLWVNTSVRRAIRTGPRVSGVELECLADGGFNGTVNLKEGGGVIFSAGAFGSAKLLLRSGIGPEDQLEIVASSKDGETFISKNDWIKLPVGHNLIDHLNTDLIITHPDVVFYDFYAAWDNPITEDKEAYLNSRSGILAQAAPNIGPLMWEEVTPSDGITRQFQWTCRVEGDSSKTNSTHAMTLSQYLGRGVVSRGRMGITSGLTTTVAEHPYLHNDGDLEAVIQGIQNVVDALSQVPDLEWVLPPPNTTVEEYVNSLIVSPANRRANHWMGTAKMGLDDGRSGGSAVVDLNTKVYGTDNLFVVDASIFPGMSTGNPSAMIVIVAEQAAQRILSLRY
By Km is commonly meant the concentration of substrate that gives half-maximal velocity. What is called kcat is the number of substrate molecules converted per active site and unit of time at saturation. For orientation: kcat/Km means the second-order rate constant that governs catalysis at low substrate concentration. Take B1: in data set [1], the Km turned out to be 4.08 mM, the kcat turned out to be 0.50 s⁻¹ and the kcat/Km amounted to 120 M⁻¹ s⁻¹. In data set [2], the Km is 86.7 mM.

B2: Myriococcum thermophilum cellobiose dehydrogenase (CDH, SEQ ID NO: 1) variant W316L (Thermothelomyces myriococcoides; W316L) (protein)
chain: QNNVPNTFTDPDSGITFNTWGLDEDSPQTQGGFTFGVALPSDALTTDASEFIGYLKCARNDESGWCGISLGGPMTNSLLITAWPHEDTVYTSLRFATGYAMPDVYEGDAEITQVSSSVNSTHFSLIFRCKNCLQWSHGGSSGGASTSGGVLVLGWVQAFDDPGNPTCPEQITLQQHDNGMGIWGAQLNTDAASPSYTDWAAQATKTVTGDCEGPTETSVVGVPVPTGVSFDYIVVGGGAGGIPAADKLSEAGKSVLLIEKGFASTANTGGTLGPEWLEGHDLTRFDVPGLCNQILVDSKGIACEDTDQMAGCVLGGGTAVNAGLWFKPYSLDWDYLFPDGWKYNDVQPAINRALSRIPGTDAPSTDGKRYYQEGFEVLSKGLAAGGWTSVTANNAPDKKNRTFAHAPFMFAGGERNGPLGTYFQTAKKRNNFDVWLNTSVKRVIREGGHITGVEVEPFRDGGYEGIVPVTKVTGRVILSAGTFGSAKILLRSGIGPEDQLEVVAASEKDGPTMIGNSSWINLPVGYNLDDHLNTDTVISHPDVVFYDFYEAWDDPIESDKNSYLESRTGILAQAAPNIGPMFWEEIVGADGIVRQLQWTARVEGSLGAPNGHTMTMSQYLGRGATSRGRMTITPSLTTIVSDVPYLKDPNDKEAVIQGIINLQNALQNVANLTWLFPNSTITPREYVESMVVSPSNRRSNHWMGTNKLGTDDGRKGGSAVVDLDTRVYGTDNLFVIDASIFPGVPTTNPTSYIVVAAEHASSRILALPDLEPVPKYGQCGGREWTGSFVCADGSTCEYQNEWYSQCL
Take B2: in data set [3], the catalytic constant (kcat) was 9.9 s⁻¹ and the catalytic efficiency (kcat/Km) is 2.8 M⁻¹ s⁻¹.

B3: Myriococcum thermophilum cellobiose dehydrogenase (CDH, SEQ ID NO: 1) variant W316R (Thermothelomyces myriococcoides; W316R) (protein)
chain: QNNVPNTFTDPDSGITFNTWGLDEDSPQTQGGFTFGVALPSDALTTDASEFIGYLKCARNDESGWCGISLGGPMTNSLLITAWPHEDTVYTSLRFATGYAMPDVYEGDAEITQVSSSVNSTHFSLIFRCKNCLQWSHGGSSGGASTSGGVLVLGWVQAFDDPGNPTCPEQITLQQHDNGMGIWGAQLNTDAASPSYTDWAAQATKTVTGDCEGPTETSVVGVPVPTGVSFDYIVVGGGAGGIPAADKLSEAGKSVLLIEKGFASTANTGGTLGPEWLEGHDLTRFDVPGLCNQIRVDSKGIACEDTDQMAGCVLGGGTAVNAGLWFKPYSLDWDYLFPDGWKYNDVQPAINRALSRIPGTDAPSTDGKRYYQEGFEVLSKGLAAGGWTSVTANNAPDKKNRTFAHAPFMFAGGERNGPLGTYFQTAKKRNNFDVWLNTSVKRVIREGGHITGVEVEPFRDGGYEGIVPVTKVTGRVILSAGTFGSAKILLRSGIGPEDQLEVVAASEKDGPTMIGNSSWINLPVGYNLDDHLNTDTVISHPDVVFYDFYEAWDDPIESDKNSYLESRTGILAQAAPNIGPMFWEEIVGADGIVRQLQWTARVEGSLGAPNGHTMTMSQYLGRGATSRGRMTITPSLTTIVSDVPYLKDPNDKEAVIQGIINLQNALQNVANLTWLFPNSTITPREYVESMVVSPSNRRSNHWMGTNKLGTDDGRKGGSAVVDLDTRVYGTDNLFVIDASIFPGVPTTNPTSYIVVAAEHASSRILALPDLEPVPKYGQCGGREWTGSFVCADGSTCEYQNEWYSQCL
For B3, in data set [4], the kcat is 1.2 s⁻¹ and the kcat/Km was 0.34 M⁻¹ s⁻¹.

B4: Myriococcum thermophilum cellobiose dehydrogenase (CDH, SEQ ID NO: 1) variant R622N (Thermothelomyces myriococcoides; R622N) (protein)
chain: QNNVPNTFTDPDSGITFNTWGLDEDSPQTQGGFTFGVALPSDALTTDASEFIGYLKCARNDESGWCGISLGGPMTNSLLITAWPHEDTVYTSLRFATGYAMPDVYEGDAEITQVSSSVNSTHFSLIFRCKNCLQWSHGGSSGGASTSGGVLVLGWVQAFDDPGNPTCPEQITLQQHDNGMGIWGAQLNTDAASPSYTDWAAQATKTVTGDCEGPTETSVVGVPVPTGVSFDYIVVGGGAGGIPAADKLSEAGKSVLLIEKGFASTANTGGTLGPEWLEGHDLTRFDVPGLCNQIWVDSKGIACEDTDQMAGCVLGGGTAVNAGLWFKPYSLDWDYLFPDGWKYNDVQPAINRALSRIPGTDAPSTDGKRYYQEGFEVLSKGLAAGGWTSVTANNAPDKKNRTFAHAPFMFAGGERNGPLGTYFQTAKKRNNFDVWLNTSVKRVIREGGHITGVEVEPFRDGGYEGIVPVTKVTGRVILSAGTFGSAKILLRSGIGPEDQLEVVAASEKDGPTMIGNSSWINLPVGYNLDDHLNTDTVISHPDVVFYDFYEAWDDPIESDKNSYLESRTGILAQAAPNIGPMFWEEIVGADGIVRQLQWTANVEGSLGAPNGHTMTMSQYLGRGATSRGRMTITPSLTTIVSDVPYLKDPNDKEAVIQGIINLQNALQNVANLTWLFPNSTITPREYVESMVVSPSNRRSNHWMGTNKLGTDDGRKGGSAVVDLDTRVYGTDNLFVIDASIFPGVPTTNPTSYIVVAAEHASSRILALPDLEPVPKYGQCGGREWTGSFVCADGSTCEYQNEWYSQCL
As for B4, in data set [5], the kcat is 13.1 s⁻¹ and the kcat/Km was 6.0 M⁻¹ s⁻¹.
